Experimental data published in patent US20100047164A1.

Target: chondroitin sulfate proteoglycan (human) (UniProt Q6UVK1)

## 9.2.27 PE38-KDEL (from UniProt P11439) (scFv)
  IC50 cytotoxicity, A375 (Expt 2) melanoma cells (9.2.27F10): 4.5 µg/mL
  IC50 cytotoxicity, A375 (Expt 2) melanoma cells (9.2.27F11): 4.5 µg/mL
  IC50 cytotoxicity, A375 (Expt 3) melanoma cells (9.2.27F11): 0.6 µg/mL
  IC50 cytotoxicity, D54 glioma cells (9.2.27F10): 0.055 µg/mL
  IC50 cytotoxicity, D54 glioma cells (9.2.27F11): 0.07 µg/mL
  IC50 cytotoxicity, D79 glioma cells (9.2.27F10): 0.22 µg/mL
  IC50 cytotoxicity, D79 glioma cells (9.2.27F11): 0.1 µg/mL
  IC50 cytotoxicity, D245 glioma cells (9.2.27F10): 0.008 µg/mL
  IC50 cytotoxicity, D245 glioma cells (9.2.27F11): 0.006 µg/mL
  IC50 cytotoxicity, D247 glioma cells (9.2.27F11): 0.08 µg/mL
  IC50 cytotoxicity, H350 melanoma cells (9.2.27F10): 0.02 µg/mL
  IC50 cytotoxicity, H350 melanoma cells (9.2.27F11): 0.02 µg/mL
  IC50 cytotoxicity, Malme3M melanoma cells (9.2.27F10): 0.018 µg/mL
  IC50 cytotoxicity, Malme3M melanoma cells (9.2.27F11): 0.02 µg/mL
  IC50 cytotoxicity, SKMel2 melanoma cells (9.2.27F10): 2.4 µg/mL
  IC50 cytotoxicity, SKMel2 melanoma cells (9.2.27F11): 0.7 µg/mL
  IC50 cytotoxicity, SKMel5 melanoma cells (9.2.27F10): 0.35 µg/mL
  IC50 cytotoxicity, SKMel5 melanoma cells (9.2.27F11): 0.2 µg/mL
  IC50 cytotoxicity, TB2620 glioma cells (9.2.27F10): 0.5 µg/mL
  IC50 cytotoxicity, TB2620 glioma cells (9.2.27F11): 0.18 µg/mL

## MEL-14 PE38-KDEL (from UniProt P11439) (scFv)
  IC50 cytotoxicity, A375 (Expt 2) melanoma cells (Mel14-KDEL): 0.5 µg/mL
  IC50 cytotoxicity, A375 (Expt 3) melanoma cells (Mel14-KDEL): 0.45 µg/mL
  IC50 cytotoxicity, D54 glioma cells (Mel14-KDEL): 0.05 µg/mL
  IC50 cytotoxicity, D79 glioma cells (Mel14-KDEL): 0.2 µg/mL
  IC50 cytotoxicity, D245 glioma cells (Mel14-KDEL): 0.004 µg/mL
  IC50 cytotoxicity, D247 glioma cells (Mel14-KDEL): 0.1 µg/mL
  IC50 cytotoxicity, H350 melanoma cells (Mel14-KDEL): 0.008 µg/mL
  IC50 cytotoxicity, Malme3M melanoma cells (Mel14-KDEL): 0.001 µg/mL
  IC50 cytotoxicity, SKMel2 melanoma cells (Mel14-KDEL): 0.036 µg/mL
  IC50 cytotoxicity, SKMel5 melanoma cells (Mel14-KDEL): 0.06 µg/mL
  IC50 cytotoxicity, TB2620 glioma cells (Mel14-KDEL): 0.15 µg/mL
